assay: label from the status in PepcDB records
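Also: failed if final PepcDB status was selected cloned or expressed and not failed if soluble or beyond.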

Sequence | protein production
MDKNIIIGAMTALITPFKNGKVDEQSYARLIKRQIENGIDAVVPVGTTGESATLTHEEHRTCIEIAVETCKGTKVKVLAGAGSNATHEAVGLAKFAKEHGADGILSVAPYYNKPTQQGLYEHYKAIAQSVDIPVLLYNVPGRTGCEISTDTIIKLFRDCENIYGVKEASGNIDKCVDLLAHEPRMMLISGEDAINYPILSNGGKGVISVTSNLLPDMISALTHFALDENYKEAKKINDELYNINKILFCESNPIPIKTAMYLAGLIESLEFRLPLCSPSKENFAKIEEVMKKYKIKGF | not failed
MDKNNNNLRLILAIALSFLFIALYSYFFQKPNKTTTQTTKQETTNNHTATSPNAPNAQHFSTTQTTPQENLLSTISFEHARIEIDSLGRIKQVYLKDKKYLTPKQKGFLEHVGHLFSSKENAQPPLKELPLLAADKLKPLEVRFLDPTLNNKAFNTPYSASKTTLGPNEQLVLTQDLGTLSIIKTLTFYDDLHYDLKIAFKSPNNLIPSYVITNGYRPVADLDSYTFSGVLLENSDKKIEKIEDKDAKEIKRFSNTLFLSSVDRYFTTLLFTKDPQGFEALIDSEIGTKNPLGFISLKNEANLHGYIGPKDYRSLKAISPMLTDVIEYGLITFFAKGVFVLLDYLYQFVGNWGWAIILLTIIVRIILYPLSYKGMVSMQKLKELAPKMKELQEKYKGEPQKLQAHMMQLYKKHGANPLGGCLPLILQIPVFFAIYRVLYNAVELKSSEWILWIHDLSIMDPYFILPLLMGASMYWHQSVTPNTMTDPMQAKIFKLLPLLFTIFLITFPAGLVLYWTTNNILSVLQQLIINKVLENKKRMHAQNKKEH | failed
MDKPILKDSMKLFEALGTIKSRSMFGGFGLFADETMFALVVNNQLHIRADQQTSSDFETQGLKPYVYKKRGFPVVTKYYAISSELWESSDRLIEVAKKSLENAKL | not failed
MDKPVLKDSMRLFEQLGRVKSRSMFGGFGIFVDETMFALVVNDTLHIRADDATIEKYKQQGYEPYVYKKRGFPVVTKYYALPEDCWSHPDSILNEVRAALEVAKA | failed
MDKQAILDNIHQTWQEEANAISRLPEVTSEEALVKTVEKIAECTGKIVVAGCGTSGVAAKKLVHSFNCIERPAVFLTPSDAVHGTLGVLQKEDILILISKGGNTGELLNLIPACKTKGSTLIGVTENPDSVIAKEADIFFPVSVSKEPDPFNMLATASTMAVIASFDAVIVCLMTYMNYTKEQFSVIHPGGAVGNKLLNK | not failed
MDKRFVQAHKEARWALWLTLLYLAAWLAAAYLPGVAIGFTGLPHWFEMACLLVPLLFILLCWAMVKLIFRDISLEDDDAV | failed
MDKRRVVVTGVGAVTPIGNDAETSWENAKKGVNGVAKMTRLNPDDFPVKIAAELKDFDVEKYLEKKEARKMDRFTHYAIASAEMAVQDSGLVIDDSNANRVGVWIGSGIGGMETFETQYEIFLNRGHRRVSPFFVPMMIPDMGSGQVSIRFGAKGINSTTVTACATATNSIGDAFKVIERGDADAMITGGAEAPITKMSLAGFTANKALSLNPDPETACRPFDKDRDGFIIGEGAGIVILEEYEHAKARGAKIYAEIVGYGATGDAYHITAPAPNGEGAARAMKMAIDDAGLTPDKVDYINAHGTSTPYNDEYETQAIKTVFGEHAKKLAISSTKSMTGHTLGASGGIEAIFALLTIRDNIIAPTIHLKNQDEVCDLDYVPNEAREANVNVVISNSFGFGGHNATLVFKRIED | not failed
MDKTKTFCKASLVSIALVLLLVSSAALAATENDTGNATIKDDYVSSTAMANTEGSSLPKVTETQITTSGFHPAIYGNRIVWTDYHDEECNIYMYDLSTKKETQITTSGDVSGSDIYGNRIVWSNYVYPNEVYMYDLSTSQKSTISGYNSYVDSLSIYGDKVVWGDSLDDYVSIFMHDLSTKEETLLTYDAYNPAIYGNRIVWEDRFDDNIYMYDISTKKQTRITNGGAADDPAIYGNRIVYASTHDGNTDIYMYDLSTKKQTQITSSPDAQTHPAIYGNRIVWEDDGGEDDGYTNHGIYMYDISTNQKMKISTKGSAYSPTIYGNNIVWEYYNNENGKLRNLHGHYFRTKTEPSYCCILCIPNFRKNTIKSYFY | failed
MDKTNLGELINQGKSLLDESVEGFNVGEYHKGAKDGLTVEINKAEEVFNKEDATEEEINLAKESLEGAIARFNSLLIEESTGDFNGNGKIDIGDLAMVSKNIGSTTNTSLDLNKDGSIDEYEISFINHRILNLEHHHHHH | not failed
MDKVYLTWWQVDRAIFALAEKLREYKPDVIIGVARGGLIPAVRLSHILGDIPLKVIDVKFYKGIDERGEKPVITIPIHGDLKDKRVVIVDDVSDTGKTLEVVIEEVKKLGAKEIKIACLAMKPWTSVVPDYYVFRTEKWIVFPWEEFPVIEKE | not failed
MDLDYGGVPLWINRFLGEPSVLTLKDRIDPGWYRAVNTQSCPLECDCPIQWPTAIYCDHRGLNQLPSGLPFRLQYLFLQGNNITSLGSRAFDNTTYLRWLILDHNELLSEQLDNVLFSSLTRLVNLFINHNNLTKVPAGLPSGLKQLRLAYNHIEKISEGDFQNLDSLTLILLQGNRLKTIEEGDFKGLGALNLLDLSHNFLDTFPKHLPPSVQQLYLSNNSLTGLSENSLHAFSGLRYLRLGHNKLRNERLDPGAFNLTSLVELDLSYNRLTEIPSVPITLQYLYLEVNHIQEFNVSSFCRTVGPTSYSRMKILRLDGNKLEYHKLPPDWVFCLRVLHNIYI | failed
MDLELDEYYNKTLATENNTAATRNSDFPVWDDYKSSVDDLQYFLIGLYTFVSLLGFMGNLLILMALMKKRNQKTTVNFLIGNLAFSDILVVLFCSPFTLTSVLLDQWMFGKVMCHIMPFLQCVSVLVSTLILISIAIVRYHMIKHPISNNLTANHGYFLIATVWTLGFAICSPLPVFHSLVELQETFGSALLSSRYLCVESWPSDSYRIAFTISLLLVQYILPLVCLTVSHTSVCRSISCGLSNKENRLEENEMINLTLHPSKKSGPQVKLSGSHKWSYSFIKKHRRRYSKKTACVLPAPERPSQENHSRILPENFGSVRSQLSSSSKFIPGVPTCFEIKPEENSDVHELRVKRSVTRIKKRSRSVFYRLTILILVFAVSWMPLHLFHVVTDFNDNLISNRHFKLVYCICHLLGMMSCCLNPILYGFLNNGIKADLVSLIHCLHM | failed
MDLETLRARREAVLSLCARHGAVRVRVFGSVARGEAREDSDLDLLVAFEEGRTLLDHARLKLALEGLLGVRVDIVSERGLAPRLREQVLREAIPL | not failed
MDLFPEEIYVFTPDGRIIELPMGATAIDFAYAVHTDVGNSCVGVKVDRKPYPMSRPIDSGQTIEVITSASARPNATWLEHHHHHH | failed
MDLGILSQLLILLFVSMLLGVLFSKFKIPDVVAYILTGVLVGNGFLKIVSPSVPISDIESVSLFFIILAIGVEANTEYIYGNVRRSIILTISSFIAPSMLGFLYLQAVAHLPIIPAFVLSMSVGVPSISIISVLLMRYDLLKLNAGRLILSSVVLTDTSAFIILSSTYESVTKVLISFGFVVLFLFAIWLFDILIRRRAGRIIEWISRRETDNNMEYILFSLVIIAGLLVSTLFEFIGITYVLGAFYAGILIHEASIGQKYHKIILNTIKRINDSFFIPLFFSIAGISMILPKISIFMIFLPALLILMGASGGLTYLVSHRLIRSLEPIKVVSILGGRGAVGVIIATIAFQSGIIDVAVYSLALIGTVIFSLVMTPLVSIGNAPSQNDDVRYS | failed
MDLKGGESMVDWKLMQEIIEAPGVSGYEHLGIRDIVVDVLKEVADEVKVDKLGNVIAHFKGSSPRIMVAAHMDKIGVMVNHIDKDGYLHIVPIGGVLPETLVAQRIRFFTEKGERYGVVGVLPPHLRRGQEDKGSKIDWDQIVVDVGASSKEEAEEMGFRVGTVGEFAPNFTRLNEHRFATPYLDDRICLYAMIEAARQLGDHEADIYIVGSVQEEVGLRGARVASYAINPEVGIAMDVTFAKQPHDKGKIVPELGKGPVMDVGPNINPKLRAFADEVAKKYEIPLQVEPSPRPTGTDANVMQINREGVATAVLSIPIRYMHSQVELADARDVDNTIKLAKALLEELKPMDFTP | not failed
MDLLERLGLGGRRVLILHHDDLGLTHAQNGAYQALGLPTGSVMVPGAWASGVKGEDLGVHLVLTSEWPAPRMRPLTEGESLRDEAGYFPESLEALWRKARAEEVERELKAQIQAAAKLFSPTHLDAHQGAVLRPDLAEVYLRLAEAYRLVPLVPESLEGLGVPPPFLPELERLLYETPFPQVRFLDPYGLPPEERLGFYLDLAHLPPGLYYLVHHSALPTPEGRALPDWPTREADYFALSHPEVRRVLAEFHPLTWRAVREALF | not failed
